Test [1] deals with human CD22 (human) (UniProt P20273). Description: cell-based or functional assay.
Test [2] has as its target human CD3 (human). Description: cell-based or functional assay.
Test [3] has as its target mouse PD1 (mouse) (UniProt Q02242). Nature of the test: cell-based or functional assay.
Test [4] addresses mouse CD20 (mouse) (UniProt P19437). Description: flow cytometry on MC38/mCD20 cells.

human CD22 (human), sequence (P20273 20-847): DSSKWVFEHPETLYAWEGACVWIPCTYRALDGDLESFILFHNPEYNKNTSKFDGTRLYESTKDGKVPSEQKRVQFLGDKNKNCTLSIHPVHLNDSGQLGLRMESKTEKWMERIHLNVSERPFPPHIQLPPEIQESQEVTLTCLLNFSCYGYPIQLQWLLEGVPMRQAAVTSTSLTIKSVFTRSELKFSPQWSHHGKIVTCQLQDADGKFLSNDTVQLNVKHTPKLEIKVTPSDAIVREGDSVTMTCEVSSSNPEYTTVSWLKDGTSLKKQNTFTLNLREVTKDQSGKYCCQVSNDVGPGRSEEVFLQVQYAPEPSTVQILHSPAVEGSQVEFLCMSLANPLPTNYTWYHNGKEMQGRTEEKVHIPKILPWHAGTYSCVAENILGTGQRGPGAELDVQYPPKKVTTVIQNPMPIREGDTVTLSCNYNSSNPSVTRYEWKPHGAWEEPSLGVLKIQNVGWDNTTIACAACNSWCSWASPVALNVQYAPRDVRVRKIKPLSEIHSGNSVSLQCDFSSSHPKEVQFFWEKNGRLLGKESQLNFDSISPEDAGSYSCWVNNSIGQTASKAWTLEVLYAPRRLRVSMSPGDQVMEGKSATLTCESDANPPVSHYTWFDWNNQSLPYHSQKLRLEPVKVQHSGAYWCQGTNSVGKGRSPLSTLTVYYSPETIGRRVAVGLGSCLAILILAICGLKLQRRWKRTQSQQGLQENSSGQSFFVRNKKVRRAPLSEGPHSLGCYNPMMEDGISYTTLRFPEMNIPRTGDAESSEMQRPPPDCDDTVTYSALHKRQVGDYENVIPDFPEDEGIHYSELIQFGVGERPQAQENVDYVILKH
mouse CD20 (mouse), sequence (P19437 whole entry): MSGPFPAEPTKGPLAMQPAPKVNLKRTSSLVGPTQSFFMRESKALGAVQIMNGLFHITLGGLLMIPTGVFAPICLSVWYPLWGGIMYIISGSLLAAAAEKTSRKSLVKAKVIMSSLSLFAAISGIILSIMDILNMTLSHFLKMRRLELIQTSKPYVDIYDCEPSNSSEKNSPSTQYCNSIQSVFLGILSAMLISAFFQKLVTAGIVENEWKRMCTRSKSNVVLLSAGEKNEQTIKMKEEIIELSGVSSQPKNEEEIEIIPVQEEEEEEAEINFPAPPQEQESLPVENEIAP
mouse PD1 (mouse), sequence (Q02242 25-288): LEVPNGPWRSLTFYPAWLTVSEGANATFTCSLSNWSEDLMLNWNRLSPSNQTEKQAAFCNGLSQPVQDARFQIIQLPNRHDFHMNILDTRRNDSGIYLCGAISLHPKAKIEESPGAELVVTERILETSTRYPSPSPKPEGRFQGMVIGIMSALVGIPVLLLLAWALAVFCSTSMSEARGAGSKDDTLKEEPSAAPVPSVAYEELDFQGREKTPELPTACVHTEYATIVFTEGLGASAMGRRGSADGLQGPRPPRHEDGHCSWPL

For “CD3 bsAb (REGN10551) (bispecific antibody)”, in test [1], the EC50, activation of T cell signaling (AP1-luciferase), run with 1 nM CD3 bsAb was determined as 1.15 nM and the EC50, activation of T cell signaling (AP1-luciferase), run with 2.5 nM CD3 bsAb was 0.627 nM. In test [2], this substance displayed an EC50, activation of T cell signaling (AP1-luciferase), run with 1 nM CD3 bsAb of 1.15 nM and an EC50, activation of T cell signaling (AP1-luciferase), run with 2.5 nM CD3 bsAb of 0.627 nM.

The substance REGN1932 (hIgG1 control) (antibody) registered a Max % inhibition, AP1-luciferase bioassay, 2.5 nM CD3 bsAb in test [3] of 3%.

In test [4], Single arm mPDL1 WT-Fc (Fc fusion) registered a Max MFI of 94.9 MFI.
